The target of assay [1] is IFP2.0. The experiment in a line: SEC; side-by-side comparison of miRFPs with IFP2.0 and iRFP713 (Supplementary Fig. 3 or 4), HiLoad 16/600 Superdex 200; concentration not given.
In assay [2] the target is IFP2.0. The experiment in a line: AUC; sedimentation velocity, 20 °C, 58,000 r.p.m., PBS, absorbance at 645 nm, protein at A645 ≈0.9; side-by-side comparison of miRFPs with IFP2.0 and iRFP713.
Assay [3] concerns the target iRFP713. As to the kind of experiment: SEC; side-by-side comparison of miRFPs with IFP2.0 and iRFP713 (Supplementary Fig. 3 or 4), HiLoad 16/600 Superdex 200; concentration not given. Background: Size exclusion chromatography separates by hydrodynamic size, large species first.
The target of assay [4] is iRFP713. The experiment in a line: AUC; sedimentation velocity, 20 °C, 58,000 r.p.m., PBS, absorbance at 645 nm, protein at A645 ≈0.9; side-by-side comparison of miRFPs with IFP2.0 and iRFP713.

Drawing on paper PMC4992171, this text covers stoichiometry N for two substances.

Broadly, the stoichiometry N is the number of molecules, sites or subunits per partner or assembly. In the case of IFP2.0, the stoichiometry N with IFP2.0 [1] and with IFP2.0 [2] was 2 in each case.
For iRFP713, the stoichiometry N with iRFP713 [3] and in the assay with iRFP713 [4] was 2 throughout.
